Measurements taken from patent publication US20210000909A1.

Molecular target: PDZ1/2 domain, P78352
Sequence (P78352 61-249 limits assumed): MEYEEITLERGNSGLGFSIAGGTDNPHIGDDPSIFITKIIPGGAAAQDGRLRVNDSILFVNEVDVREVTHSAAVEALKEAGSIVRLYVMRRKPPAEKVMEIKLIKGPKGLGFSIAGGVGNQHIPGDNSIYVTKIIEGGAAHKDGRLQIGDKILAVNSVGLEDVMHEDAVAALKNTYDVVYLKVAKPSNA

B1: chimeric peptide YE-NA-1 (peptide)
peptide: YGRKKRRQRRRYEKLSSIESDV
modifications: not checked
Kd: 54.4 nM
